Biological target: T1, IFN regulatory factor 3 (mouse (endogenous in BMDMs)), P70671
T1 chain: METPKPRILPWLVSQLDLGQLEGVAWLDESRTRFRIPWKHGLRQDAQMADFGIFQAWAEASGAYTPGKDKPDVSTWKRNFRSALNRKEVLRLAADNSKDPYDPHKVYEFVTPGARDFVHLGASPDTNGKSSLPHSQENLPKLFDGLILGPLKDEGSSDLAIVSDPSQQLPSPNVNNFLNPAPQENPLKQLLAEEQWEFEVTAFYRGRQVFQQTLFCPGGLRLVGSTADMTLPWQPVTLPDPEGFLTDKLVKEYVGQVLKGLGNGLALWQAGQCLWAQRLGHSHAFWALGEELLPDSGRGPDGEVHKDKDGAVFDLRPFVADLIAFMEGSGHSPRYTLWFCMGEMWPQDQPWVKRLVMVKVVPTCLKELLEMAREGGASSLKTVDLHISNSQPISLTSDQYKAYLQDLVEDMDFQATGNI
Assay: native gel or EMSA
Conditions: remark: other sources report otherwise

B1: IFN regulatory factor 3, P70671 1-419 (natural protein)
chain: T1 chain
Q: With B1 as the binder, how does the stoichiometry N read?
A: The stoichiometry N was 2.

Reference: PMC4119481
